These results are taken from patent US20220289850 (published 2022).

The target of this test is T1, human integrin avb6 (human, UniProt P06756).
T1 chain 1: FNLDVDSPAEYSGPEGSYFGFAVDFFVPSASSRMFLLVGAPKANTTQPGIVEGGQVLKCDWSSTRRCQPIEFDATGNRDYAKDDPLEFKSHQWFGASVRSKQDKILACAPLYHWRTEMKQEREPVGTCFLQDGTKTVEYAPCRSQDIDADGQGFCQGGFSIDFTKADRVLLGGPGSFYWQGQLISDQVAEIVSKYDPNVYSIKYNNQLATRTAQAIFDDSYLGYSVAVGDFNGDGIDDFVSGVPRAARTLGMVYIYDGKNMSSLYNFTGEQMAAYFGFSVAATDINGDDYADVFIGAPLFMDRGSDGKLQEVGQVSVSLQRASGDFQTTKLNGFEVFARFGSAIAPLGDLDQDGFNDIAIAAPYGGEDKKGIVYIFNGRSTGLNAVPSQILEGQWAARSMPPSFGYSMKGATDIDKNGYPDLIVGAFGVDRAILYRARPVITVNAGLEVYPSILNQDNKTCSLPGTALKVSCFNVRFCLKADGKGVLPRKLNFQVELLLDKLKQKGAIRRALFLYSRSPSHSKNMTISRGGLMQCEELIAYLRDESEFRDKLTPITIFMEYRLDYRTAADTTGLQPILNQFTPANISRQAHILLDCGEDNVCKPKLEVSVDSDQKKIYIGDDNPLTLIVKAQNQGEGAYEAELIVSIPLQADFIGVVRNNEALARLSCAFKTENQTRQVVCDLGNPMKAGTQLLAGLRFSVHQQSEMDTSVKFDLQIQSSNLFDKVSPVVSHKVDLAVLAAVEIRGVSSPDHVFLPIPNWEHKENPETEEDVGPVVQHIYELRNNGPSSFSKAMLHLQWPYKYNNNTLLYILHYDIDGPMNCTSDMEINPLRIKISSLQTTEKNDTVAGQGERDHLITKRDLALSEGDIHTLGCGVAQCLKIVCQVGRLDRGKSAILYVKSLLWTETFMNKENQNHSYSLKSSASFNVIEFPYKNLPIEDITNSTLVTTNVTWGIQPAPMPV
T1 chain 2: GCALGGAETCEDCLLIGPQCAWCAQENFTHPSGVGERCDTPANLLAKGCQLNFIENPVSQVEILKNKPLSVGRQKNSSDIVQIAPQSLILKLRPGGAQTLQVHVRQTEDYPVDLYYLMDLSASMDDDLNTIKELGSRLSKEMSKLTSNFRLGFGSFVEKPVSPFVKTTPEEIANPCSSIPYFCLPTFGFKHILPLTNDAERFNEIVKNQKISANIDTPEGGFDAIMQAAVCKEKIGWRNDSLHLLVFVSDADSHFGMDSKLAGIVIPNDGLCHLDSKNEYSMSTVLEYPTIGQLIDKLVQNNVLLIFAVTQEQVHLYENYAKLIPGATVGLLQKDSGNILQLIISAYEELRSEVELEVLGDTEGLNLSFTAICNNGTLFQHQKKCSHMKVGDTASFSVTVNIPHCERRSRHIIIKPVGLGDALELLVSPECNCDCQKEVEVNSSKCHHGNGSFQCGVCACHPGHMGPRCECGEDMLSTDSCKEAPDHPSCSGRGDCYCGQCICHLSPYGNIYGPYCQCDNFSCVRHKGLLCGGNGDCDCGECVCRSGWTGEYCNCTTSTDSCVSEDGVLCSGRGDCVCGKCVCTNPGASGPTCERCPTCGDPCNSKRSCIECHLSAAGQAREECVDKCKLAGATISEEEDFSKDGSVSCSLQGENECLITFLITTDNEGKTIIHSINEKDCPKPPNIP
Put plainly: SPR. A general note: Surface plasmon resonance follows binding to a sensor surface in real time, without labels.

B1: ADWA11 2.4 IgG (antibody)
chain 1: EVQLVESGGGLVQPGGSLRLSCAASGFNIKDYYMNWVRQAPGKGLEWVGWIDPDQGNTIYEPKFQGRFTISADTSKNSAYLQMNSLRAEDTAVYYCARRLLMDYWGQGTLVTVSSASTKGPSVFPLAPSSKSTSGGTAALGCLVKDYFPEPVTVSWNSGALTSGVHTFPAVLQSSGLYSLSSVVTVPSSSLGTQTYICNVNHKPSNTKVDKKVEPKSCDKTHTCPPCPAPEAAGAPSVFLFPPKPKDTLMISRTPEVTCVVVDVSHEDPEVKFNWYVDGVEVHNAKTKPREEQYNSTYRVVSVLTVLHQDWLNGKEYKCKVSNKALPAPIEKTISKAKGQPREPQVYTLPPSREEMTKNQVSLTCLVKGFYPSDIAVEWESNGQPENNYKTTPPVLDSDGSFFLYSKLTVDKSRWQQGNVFSCSVMHEALHNHYTQKSLSLSPGK
chain 2: DIQMTQSPSSLSASVGDRVTITCRSTKSLSHFNGNTYLFWYQQKPGKAPKRLIYYMSSLASGVPSRFSGSGSGTDFTLTISSLQPEDFATYYCQQSLEYPFTFGGGTKVEIKRTVAAPSVFIFPPSDEQLKSGTASVVCLLNNFYPREAKVQWKVDNALQSGNSQESVTEQDSKDSTYSLSSTLTLSKADYEKHKVYACEVTHQGLSSPVTKSFNRGEC
In the case of B1, the binding result is listed as “no binding”.
